This note sets out measurements from patent EP0811683B1, “Antibodies to human gastrin-releasing peptide precursor and use thereof” (Yamaguchi, Ken, priority 1996, dated 1997).

This data set is described as follows: Comparison of stability of GRPs in the blood (serum, plasma, aprotinin-containing plasma; Fig. 3). In kind it is in vitro ADME. The conditions noted are these: 0, 1 and 6 hours, result in words. The method, then: Stabilities in the blood of GRP(1-27) and GRP(31-98) were compared using antibodies to the above-prepared GRP(31-98) and antibodies to the conventional GRP(1-27).
A small amount of GRP(1-27) or GRP(31-98) was added to a serum, plasma, or aprotinin - containing plasma, and the residual concentration of GRP(1-27) and GRP(31-98) was determined at 0, 1, and 6 hours from the addition, and the percentages of the residual concentration were obtained taking the concentration at the starting point (0 hour) as 100%.

Where no end group is shown, it is not given here.

In the case of “GRP(1-27): mature human gastrin-releasing peptide, active peptide of 27 amino acids (VPLPAGGGTVLTKMYPRGNHWAVGHLM; ends and bridges not checked; UniProt P07492 24-50, looked up)”, the “stability in serum or plasma (residual concentration)” value was “degraded and disappeared”.
